Laboratory results taken from the DeepSol protein solubility set.

Experiment: soluble on expression in E. coli; label from the status in PepcDB or PDB records

Row | Sequence | soluble on expression in E. coli
1 | AIAGRKSNRAKEKKQRRLEERAAMDAVCAKVDAANKLEDPLSAMPVFKKYDRNGLNLQIECKRVTALSPDTVEWAYELTRANMQTLYEQSEWGWKEREKREEMKDERAWYLLARDADSTPLAFSHFRFDVECGDEVLYCYEVQLESKVRRKGLGKFLIQILQLIANSTQMKKVMLTVFKHNHGAYQFFREALQFEIDETSPSMSGCCGEDCSYEILSRRTKYGEVSGHAHGGHCGGCCH | soluble
2 | AIALTYIILVLHLQNHVWEDVTVHNSSLPPLAIKHPECLGLLHQLERSTDVWIQHYCILKDGCLYFYASIRSTQASGGLYLQGYSVSEQTHGFEQPVIELKPSSEEFKTFYFCAENKTENQRWIAALKTSIKKWLPLDQAIQEFMSRPLEETRM | soluble
3 | AIANVWLLGRGELRRRHDDVLQLERAFLTDRTGLHFVNARSSEDLLALAESRRAEQQWPVLDAEWISPVGTDTCDDLVWQNLESTLDGRPDTFYSTAGFEAGNTLSGTGELAPGEAFLAYRFWRPVRVYAVQLRAFQADFHPGRPVYPFQVARVGVGCSLQAGMSLSYGADASAPGTSCNYRCFCTTEQQTLVFDDPMVGVYLVICLKGFPQQQLTDRLHYAAVSGIRVFGEPISSPALENELSCLISRGFILDGRDAARWLDLRSAQEHAAPMHIPEDEVI | soluble
4 | AIAPTELSRTEKKSLIWLFKEHGLRVDGRSALRSRSVSVAVDVLPSTAGSSRVFVGRTNDVLVGINLELRQYNLPAHAEDDAKRGSIAFSVEFCGVASPEFQGRSTEVLEAELVSFLDTAYAASPEFLADLFCREQRLASDPGTLRVCCWDVYVDVLVLGASGGNILDAVTYAVRAALATTVVPSVYWQDSESGGSWELDDRAEYCALLNASNAPLSASGAFIPPLVRDSRTEHDQVTLVAPRWFIIDPCAEEETLAGCFLSVASDSAQHLRAIWKRGSLPVEPDVVLDAAQQCIRDSAYACQEMDHFISELVATEESESVDDVPG | soluble
5 | AIASAEAADREAVSGSRPCTPPQTSWFEFLLNPSLLEQHLHSPHPDPSPVQLIFQFLEQASKPSVNEQNQVQPPVDNRRNRTLKLMALKVAAHLRWDLNMLEKGLTIPVLNMLLNELLCVSHVPPGVKHVDLDLSSLPPTTAMAVVFYNRWAIRTIVLSSFPEKQTKPGPHQLNMMNMLQQEKEHTENILSVLREQATDSIMVLEGALSIKKDFYIHL | soluble
6 | AIASYCRQEGKDKIIFVTKEDHETPSSAELIADDPNDPFEEQGLILPNGDINWNCPCLGGMASGPCGEQFKSAFSCFHYSQEEIKGSDCLDQFRAMQECMQKYPELYPQEDDEDELEKEKQNKDEESSVTQSSDTKEESSS | soluble
7 | AIATANLAATDDWGELLDVLDPGDPTGSRVIARYDRLRVHREGLLHRSVHVCVVRSVPDWPAQVHGLRNTNYKLLLQRRSESKAIAPGCWDLSCAEHLRAGESFEGAAVRGLQEELGLALAPDQQTTPIHALDDGEPALQLYDYPSVGLTDYEWNRIYVVFVTDQADEALAKLKLDSAEVAQVRWITRESLQMELAENPSHFTPWFRDQARKHLLPSAYN | soluble
8 | AIAYRDRYPYYDGEVYDDTGVVFPENIERRPNGRRVIVEEPEDYGMPNDRGVEDEYDERNPFRGGHSMQPWNQSPFDHFDRLFETPFAGLDRGSFGGMFGNIEQSLRRLEEDFARGAGRGNAHVYSFSSKKHFGPEGEVYEESTTTTREGNRTEVRRHLKDSAAGNEEYAWKREIDGRGREVIRRRDGSGQEVTKENYYNLTPEERAQFEQQWRTLAREGLDWRGSEGNNASLPQLSDRSSWMEHDRNEHRGGLGGFFRKLFKHD | soluble
9 | ALGVDKPREIAFEVLDRVRTGEAYANLVLPRLLSKHNLSGRDAAFATEITYGTLRNVGLLDEVIKAASGRELSDIDPEVLDVLRLGAYQVMFTRVEDHAAVDTSVKMVGGLKKFQATGFANAILRNITRKEPEQWLKELEPAEELARVAFRTAHPRWIA | not soluble
10 | ALSGSSGYKFGVLAKIVNYMKTRHQRGDTHPLTLDEILDETQHLDIGLKQKQWLMTEALVNNPKIEVIDGKYAFKPKYNVR | soluble
11 | AMAELKEFLNKPAATSDVPPAPAGFDFDAAKKLVDVRCNKCHTLDSVADLFRTKYKKTGQVNLIVKRMQGFPGSGISDDDAKTIGIWLHEKF | soluble
12 | ANATKNTPSEDQQLANIIETHEAFYLKSSPFNQPEVIGNNAKLPDLSADFLLAQYQQGLAIYQQLIALDNEKLTQENQINFSVLTYSLKNQLDSYINKEHYMPLTAESGFHVWIANISKQVDFKTFTDYQDYLVRLSLLPAYFSQQTYWMKKGLKSGISQPKIVLKGFEQSIAAYIKEDVTESSYYQPFNKMSAFITTSQKKDLQQQAKQVLSTKVMPAYTAYYDFMVNVYQPNARDNIAAISLPNGKEYYQNRLVHYTTLPMTATEVHQQGVGEVKRIRVEMNAIIEQVNFDGSFSEFVEFLRTDPQFYASTPTELLKEASFIAKKMDAKLPRLFKTLPRTPYGVMAVPANIAPKYTTGRYAGSSRDDQPGNYWVNTYRLDRRPLYVLTALTLHEAVPGHHLQISLAKEMKDVAKFRNRSYISAFGEGWGLYSEYLGIEAGMYEDPYHNFGRLTYEMWRACRLVVDTGMHTQGWSREQAMDFLASNTALSLHNVKTEIDRYISWPGQALSYKIGELTIKRLRKEAEQTLGEDFDLREFHDQILKHGSMPLSMLDKIITQYINDKDNSVTK | not soluble
13 | APAILLVDDEPHSLAAMKLALEDDFDVLTAQGAEAAIAILEEEWVQVIICDQRMPGRTGVDFLTEVRERWPETVRIIITGYTDSASMMAAINDAGIHQFLTKPWHPEQLLSSARNAARMFTLARENERLSLEMRLLERP | soluble
14 | ARKCSLTGKWTNNLGSIMTIRAVNSRGEFTGTYLTAVADNPGNITLSPLLGIQHKRASQPTFGFTVHWNFSESTTVFTGQCFIDRNGKEVLKTMWLLRSSVNDISYDWIATRVGYNNFTRLSTVEE | soluble
15 | ASDRQLGPPRMCEPSPREQLMESIRKGKELKQITPPEA | soluble
16 | ASFIEQQVGGSLNEASLAHHIEQVLATNGNLFIGNSLFVRLVDALCKLPEGYPVYTNRGASGIDGLIATMAGIAKASGQPTVGVVGDISALHDLNSISLLSKINHPSILFVINNSGGAIFDMLPVEARVKEQFYRLSHNYEFSQVAAMFGIEYIRPFTWADLKAKLKLAYGRKSATIVEIKVNDQDG | not soluble
17 | ASSNANQAITSENSIKPKGKLQPQMEKYTLTYFNGRGRAEVIRLLFALANVSYEDNRITRDEWKYLKPRTPFGHVPMLNVSGNVLGESHAIELLLGGRFGLLGTNDWEEAKIMAVVLNIDELFQKLIPWTHEKNTTKKAELFRNLSESDVMPFLGRYEKFLKESTTGHIVGNKVSVADLTVFNMLMTLDDEVKLEEYPQLASFVNKIGQMPGIKEWIKKRPKTYF | soluble
18 | ATAAQAERTLPKKYGGRFTVTLIPGDGVGKEITDSVRTIFEAENIPIDWETINIKQTDHKEGVYEAVESLKRNKIGLKGLWHTPADQTGHGSLNVALRKQLDIYANVALFKSLKGVKTRIPDIDLIVIRENTEGEFSGLEHESVPGVVESLKVMTRPKTERIARFAFDFAKKYNRKSVTAVHKANIMKLGDGLFRNIITEIGQKEYPDIDVSSIIVDNASMQAVAKPHQFDVLVTPSMYGTILGNIGAALIGGPGLVAGANFGRDYAVFEPGSRHVGLDIKGQNVANPTAMILSSTLMLNHLGLNEYATRISKAVHETIAEGKHTTRDIGGSSSTTDFTNEIINKLSTMHHHHH | soluble
19 | ATATAYVRSCDGASPPTPPGCGLKLVVDLTLDDSILTGSVLETEVMVTHALHESLFPRDAASDAAGTAATSLQVSLPPITVAMRRGAVQMRYGLTYLRTFPAALRDSVRVLKTAMSCDDGVTRCPSYMSMTGTLVSAPLGLCCLCTSVECALTSDLCNASMRAHFCFRTGAAGITCVQSEGITYHGWAVGSSSPYYMMHLSASGRGIAPTTLQLTTDAPEVQKGASALQILRASGVLPGESNPTVDISGRVLFVPSAEHSSASRSISTGPVRDDDPAEWLLLPAPLVSVSGNDCDKVGISPDYFYSLSSTKQCNAQKGTCVRHQLADYRAADLEQIAQGVGGRYIAASLGTFTRQAMREQEFLLDAVERTGGAMLRWTVNADGLVFQPLPVHGVLDAIKFDSSTGILYVTVRNNNTYGGLYYVAVGQCRGARASNCDSDGVTHECGRTALVAGANTSSLLQFSMVSDLPEEVGSTASCTVVFRDAAAALLASANISWTVEHTTTTPAPNAPKAEQCRRCAFRDLRCLFSTV | not soluble
20 | ATHYSVADRWGNAVSVTYTINASYGSAASIDGAGFLLNNEMDDFSIKPGNPNLYGLVGGDANAIEANKRPLSSMSPTIVLKNNKVFLVVGSPGGSRIITTVLQVISNVIDYNMNISEAVSAPRFHMQWLPDELRIEKFGMPADVKDNLTKMGYQIVTKPVMGDVNAIQVLPKTKGSVFYGSTDPRKEF | soluble
21 | ATMTLTDANFQQAIQGDGPVLVDFWAAWCGPCRMMAPVLEEFAEAHADKVTVAKLNVDENPETTSQFGIMSIPTLILFKGGEPVKQLIGYQPKEQLEAQLADVLQ | soluble
22 | ATTPSANQNWRLLRDESAQLRIADVLQRKEQFRPLAKRSFIFPASPQAVWLQVQLPAQKVPSWLWIFAPRVQYLDYYLVQDGQLVRDQHTGESRPFQERPLPSRSYLFSLPVDGKPMTLYVRMTSNHPLMAWFDQIDEAGLVGLE | soluble
23 | ATVKQPSIGRYTGKPNPSTGKYTVSFIEGDGIGPEISKSVKKIFSAANVPIEWESCDVSPIFVNGLTTIPDPAVQSITKNLVALKGPLATPIGKGHRSLNLTLRKTFGLFANVRPAKSIEGFKTTYENVDLVLIRENTEGEYSGIEHIVCPGVVQSIKLITRDASERVIRYAFEYARAIGRPRVIVVHKSTIQRLADGLFVNVAKELSKEYPDLTLETELIDNSVLKVVTNPSAYTDAVSVCPNLYGDILSDLNSGLSAGSLGLTPSANIGHKISIFEAVHGSAPDIAGQDKANPTALLLSSVMMLNHMGLTNHADQIQNAVLSTIASGPENRTGDLAGTATTSSFTEAVIKRL | soluble
24 | CFTPESTALLESGVRKPLGELSIGDRVLSMTANGQAVYSEVILFMDRNLEQMQNFVQLHTDGGAVLTVTPAHLVSVWQPESQKLTFVFADRIEEKNQVLVRDVETGELRPQRVVKVGSVRSKGVVAPLTREGTIVVNSVAASCYA | soluble
25 | CLKEGGDSNSEKFIVGTNATYPPFEFVDKRGEVVGFDIDLAREISNKLGKTLDVREFSFDALILNLKQHRIDAVITGMSITPSRLKEILMIPYYGEEIKHLVLVFKGENKHPLPLTQYRSVAVQTGTYQEAYLQSLSEVHIRSFDSTLEVLMEVMHGKSPVAVLEPSIAQVVLKDFPALSTATIDLPEDQWVLGYGIGVASDRPALALKIEAAVQEIRKEGVLAELEQKWGLNNLEHHHHHH | soluble
26 | CNFRSTETIVNWVNDHFSKIFSQQVDIESGAVSFHPSVHVIEKNESSTIQAVQFKNREQEARHLIEIINSELNRNPEQTIAVLVRTRTQLPEIISLLRQNNIPYQGTDIDLLANLVHLRDVWSLAHALLFPGNRLSWLSILHSPYVGLGLSDIHCIAQYNSRKSIYHNLLHLDKIQDISEEGRIRANFFIQIMNQALLCRSHSRLSDWIADTLKNLHVEKILDKAQLNDLEQLWMLLDQYEKEGRIPDMNEFLNEFNKLYAQQTTPSRLQIMTIHKSKGLEFDTVILPGLGSQANRGESPMLRWLKLPTQDHGNLLLVSPIKSANQDNCPLYDYLDQLDEEKSAYEAQRLLYVAVTRAKSRLYLLDHSAKSYKSS | not soluble
27 | DDFETSLTELEPLEKDAYIVRLVFAGSTTTEPIVSSLSTAYDIKINILEANIKNTKNGTVGFLVLHIPYISSVDFGKFEKELIERQVKMEVLRHG | soluble
